{
  "source": "paper PMC3572911",
  "about": "(Biochemistry, 2013)",
  "biological_target": "the molecule itself",
  "assay": "crystal structure",
  "data": [
    {"protein": "human liver pyruvate kinase (L-PYK) with the S12D mimic of phosphorylation (enzyme, Cys436 partially oxidized to the sulfenic derivative (sulfenic acid)) not shown", "values": [
      {"measurement": "stoichiometry N", "value": 4}
    ]}
  ]
}
